The values below come from the PETadex activity labels (doi:10.1016/s0021-9258(17)37371-4).

The Km is the substrate concentration at which the rate is half of its maximum. A word on the kcat: it is the maximal rate divided by the concentration of active sites. Broadly, the kcat/Km is the second-order rate constant that governs catalysis at low substrate concentration.

The chains are these.
B1: unnamed (protein)
chain: MRPPQCLLHTPSLASPLLLLLLWLLGGGVGAEGREDAELLVTVRGGRLRGIRLKTPGGPVSAFLGIPFAEPPMGPRRFLPPEPKQPWSGVVDATTFQSVCYQYVDTLYPGFEGTEMWNPNRELSEDCLYLNVWTPYPRPTSPTPVLVWIYGGGFASGASSLDVYDGRFLVQAERTVLVSMNYRVGAFGFLALPGSREAPGNVGLLDQRLALQWVQENVAAFGGDPTSVTLFGESAGAASVGMHLLSPPSRGLFHRAVLQSGAPNGPWATVGMGEARRRATQLAHLVGCPPGGTGGNDTELVACLRTRPAQVLVNHEWHVLPQESVFRFSFVPVVDGDFLSDTPEALINAGDFHGLQVLVGVVKDEGSYFLVYGAPGFSKDNESLISRAEFLAGVRVGVPQVSDLAAEAVVLHYTDWLHPEDPARLREALSDVVGDHNVVCPVAQLAGRLAAQGARVYAYVFEHRASTLSWPLWMGVPHGYEIEFIFGIPLDPSRNYTAEEKIFAQRLMRYWANFARTGDPNEPRDPKAPQWPPYTAGAQQYVSLDLRPLEVRRGLRAQACAFWNRFLPKLLSATDTLDEAERQWKAEFHRWSSYMVHWKNQFDHYSKQDRCSDL
B2: unnamed (protein)
chain: MRPPQCLLHTPSLASPLLLLLLWLLGGGVGAEGREDAELLVTVRGGRLRGIRLKTPGGPVSAFLGIPFAEPPMGPRRFLPPEPKQPWSGVVDATTFQSVCYQYVDTLYPGFEGTEMWNPNRELSEDCLYLNVWTPYPRPTSPTPVLVWIYGGGFYSGASSLDVYDGRFLVQAERTVLVSMNYRVGAFGFLALPGSREAPGNVGLLDQRLALQWVQENVAAFGGDPTSVTLFGESAGAASVGMHLLSPPSRGLFHRAVLQSGAPNGPWATVGMGEARRRATQLAHLVGCPPGGTGGNDTELVACLRTRPAQVLVNHEAHVLPQESVFRFSFVPVVDGDFLSDTPEALINAGDFHGLQVLVGVVKDEGSYFLVYGAPGFSKDNESLISRAEFLAGVRVGVPQVSDLAAEAVVLHYTDWLHPEDPARLREALSDVVGDHNVVCPVAQLAGRLAAQGARVYAYVFEHRASTLSWPLWMGVPHGYEIEFIFGIPLDPSRNYTAEEKIFAQRLMRYWANFARTGDPNEPRDPKAPQWPPYTAGAQQYVSLDLRPLEVRRGLRAQACAFWNRFLPKLLSATDTLDEAERQWKAEFHRWSSYMVHWKNQFDHYSKQDRCSDL
B3: unnamed (protein)
chain: MRPPQCLLHTPSLASPLLLLLLWLLGGGVGAEGREDAELLVTVRGGRLRGIRLKTPGGPVSAFLGIPFAEPPMGPRRFLPPEPKQPWSGVVDATTFQSVCYQYVDTLYPGFEGTEMWNPNRELSEDCLYLNVWTPYPRPTSPTPVLVWIYGGGFYSGASSLDVYDGRFLVQAERTVLVSMNYRVGAFGFLALPGSREAPGNVGLLDQRLALQWVQENVAAFGGDPTSVTLFGESAGAASVGMHLLSPPSRGLFHRAVLQSGAPNGPWATVGMGEARRRATQLAHLVGCPPGGTGGNDTELVACLRTRPAQVLVNHEWHVLPQESVFRFSFVPVVDGDFLSDTPEALINAGDFHGLQVLVGVVKDEGSYALVYGAPGFSKDNESLISRAEFLAGVRVGVPQVSDLAAEAVVLHYTDWLHPEDPARLREALSDVVGDHNVVCPVAQLAGRLAAQGARVYAYVFEHRASTLSWPLWMGVPHGYEIEFIFGIPLDPSRNYTAEEKIFAQRLMRYWANFARTGDPNEPRDPKAPQWPPYTAGAQQYVSLDLRPLEVRRGLRAQACAFWNRFLPKLLSATDTLDEAERQWKAEFHRWSSYMVHWKNQFDHYSKQDRCSDL
B4: unnamed (protein)
chain: MRPPQCLLHTPSLASPLLLLLLWLLGGGVGAEGREDAELLVTVRGGRLRGIRLKTPGGPVSAFLGIPFAEPPMGPRRFLPPEPKQPWSGVVDATTFQSVCYQYVDTLYPGFEGTEMWNPNRELSEDCLYLNVWTPYPRPTSPTPVLVWIYGGGFASGASSLDVYDGRFLVQAERTVLVSMNYRVGAFGFLALPGSREAPGNVGLLDQRLALQWVQENVAAFGGDPTSVTLFGESAGAASVGMHLLSPPSRGLFHRAVLQSGAPNGPWATVGMGEARRRATQLAHLVGCPPGGTGGNDTELVACLRTRPAQVLVNHAAHVLPQESVFRFSFVPVVDGDFLSDTPEALINAGDFHGLQVLVGVVKDEGSYFLVYGAPGFSKDNESLISRAEFLAGVRVGVPQVSDLAAEAVVLHYTDWLHPEDPARLREALSDVVGDHNVVCPVAQLAGRLAAQGARVYAYVFEHRASTLSWPLWMGVPHGYEIEFIFGIPLDPSRNYTAEEKIFAQRLMRYWANFARTGDPNEPRDPKAPQWPPYTAGAQQYVSLDLRPLEVRRGLRAQACAFWNRFLPKLLSATDTLDEAERQWKAEFHRWSSYMVHWKNQFDHYSKQDRCSDL
B5: unnamed (protein)
chain: MRPPQCLLHTPSLASPLLLLLLWLLGGGVGAEGREDAELLVTVRGGRLRGIRLKTPGGPVSAFLGIPFAEPPMGPRRFLPPEPKQPWSGVVDATTFQSVCYQAVDTLYPGFEGTEMWNPNRELSEDCLYLNVWTPYPRPTSPTPVLVWIYGGGFASGASSLDVYDGRFLVQAERTVLVSMNYRVGAFGFLALPGSREAPGNVGLLDQRLALQWVQENVAAFGGDPTSVTLFGESAGAASVGMHLLSPPSRGLFHRAVLQSGAPNGPWATVGMGEARRRATQLAHLVGCPPGGTGGNDTELVACLRTRPAQVLVNHEWHVLPQESVFRFSFVPVVDGDFLSDTPEALINAGDFHGLQVLVGVVKDEGSYFLVYGAPGFSKDNESLISRAEFLAGVRVGVPQVSDLAAEAVVLHYTDWLHPEDPARLREALSDVVGDHNVVCPVAQLAGRLAAQGARVYAYVFEHRASTLSWPLWMGVPHGYEIEFIFGIPLDPSRNYTAEEKIFAQRLMRYWANFARTGDPNEPRDPKAPQWPPYTAGAQQYVSLDLRPLEVRRGLRAQACAFWNRFLPKLLSATDTLDEAERQWKAEFHRWSSYMVHWKNQFDHYSKQDRCSDL
B6: unnamed (protein)
chain: MRPPQCLLHTPSLASPLLLLLLWLLGGGVGAEGREDAELLVTVRGGRLRGIRLKTPGGPVSAFLGIPFAEPPMGPRRFLPPEPKQPWSGVVDATTFQSVCYQYVDTLYPGFEGTEMANPNRELSEDCLYLNVWTPYPRPTSPTPVLVWIYGGGFYSGASSLDVYDGRFLVQAERTVLVSMNYRVGAFGFLALPGSREAPGNVGLLDQRLALQWVQENVAAFGGDPTSVTLFGESAGAASVGMHLLSPPSRGLFHRAVLQSGAPNGPWATVGMGEARRRATQLAHLVGCPPGGTGGNDTELVACLRTRPAQVLVNHEWHVLPQESVFRFSFVPVVDGDFLSDTPEALINAGDFHGLQVLVGVVKDEGSYFLVYGAPGFSKDNESLISRAEFLAGVRVGVPQVSDLAAEAVVLHYTDWLHPEDPARLREALSDVVGDHNVVCPVAQLAGRLAAQGARVYAYVFEHRASTLSWPLWMGVPHGYEIEFIFGIPLDPSRNYTAEEKIFAQRLMRYWANFARTGDPNEPRDPKAPQWPPYTAGAQQYVSLDLRPLEVRRGLRAQACAFWNRFLPKLLSATDTLDEAERQWKAEFHRWSSYMVHWKNQFDHYSKQDRCSDL
B7: unnamed (protein)
chain: MRPPQCLLHTPSLASPLLLLLLWLLGGGVGAEGREDAELLVTVRGGRLRGIRLKTPGGPVSAFLGIPFAEPPMGPRRFLPPEPKQPWSGVVDATTFQSVCYQYVDTLYPGFEGTEMWNPNRELSEDCLYLNVWTPYPRPTSPTPVLVWIYGGGFYSGASSLDVYDGRFLVQAERTVLVSMNYRVGAFGFLALPGSREAPGNVGLLDQRLALQWVQENVAAFGGDPTSVTLFGESAGAASVGMHLLSPPSRGLFHRAVLQSGAPNGPWATVGMGEARRRATQLAHLVGCPPGGTGGNDTELVACLRTRPAQVLVNHEWHVLPQESVFRFSFVPVVDGDFLSDTPEALINAGDFHGLQVLVGVVKDEGSYFLVYGAPGFSKDNESLISRAEFLAGVRVGVPQVSDLAAEAVVLHYTDWLHPEDPARLREALSDVVGDHNVVCPVAQLAGRLAAQGARVYAYVFEHRASTLSWPLWMGVPHGYEIEFIFGIPLDPSRNYTAEEKIFAQRLMRYWANFARTGDPNEPRDPKAPQWPPYTAGAQQYVSLDLRPLEVRRGLRAQACAFWNRFLPKLLSATDTLDEAERQWKAEFHRWSSYMVHWKNQFDHYSKQDRCSDL
B8: unnamed (protein)
chain: MRPPQCLLHTPSLASPLLLLLLWLLGGGVGAEGREDAELLVTVRGGRLRGIRLKTPGGPVSAFLGIPFAEPPMGPRRFLPPEPKQPWSGVVDATTFQSVCYQYVDTLYPGFEGTEMWNPNRELSEDCLYLNVWTPYPRPTSPTPVLVWIYGGGFYSGASSLDVYDGRFLVQAERTVLVSMNYRVGAFGFLALPGSREAPGNVGLLDQRLALQWVQENVAAFGGDPTSVTLFGESAGAASVGMHLLSPPSRGLFHRAVLQSGAPNGPWATVGMGEARRRATQLAHLVGCPPGGTGGNDTELVACLRTRPAQVLVNHEWHVLPQESVFRFSFVPVVDGDFLSDTPEALINAGDFHGLQVLVGVVKDEGSFFLVYGAPGFSKDNESLISRAEFLAGVRVGVPQVSDLAAEAVVLHYTDWLHPEDPARLREALSDVVGDHNVVCPVAQLAGRLAAQGARVYAYVFEHRASTLSWPLWMGVPHGYEIEFIFGIPLDPSRNYTAEEKIFAQRLMRYWANFARTGDPNEPRDPKAPQWPPYTAGAQQYVSLDLRPLEVRRGLRAQACAFWNRFLPKLLSATDTLDEAERQWKAEFHRWSSYMVHWKNQFDHYSKQDRCSDL

Substrate in this data set: Acetylcholine
Particulars: pH 8; 27 °C.
B1: the Km came out at 250 µM, the kcat turned out to be 4170 s⁻¹ and the kcat/Km is 1.67e+07 M⁻¹ s⁻¹.
Take B2: the Km was found to be 200 µM, the kcat was found to be 5330 s⁻¹ and the kcat/Km came to 2.67e+07 M⁻¹ s⁻¹.
On the same counts, the results for B3 are 140 µM, 2830 s⁻¹ and 2.02e+07 M⁻¹ s⁻¹.
The corresponding values for B4 are 280 µM, 2330 s⁻¹ and 8.33e+06 M⁻¹ s⁻¹.
Consider B5, for which the Km was found to be 70 µM, the kcat was 4170 s⁻¹ and the kcat/Km was determined as 5.95e+07 M⁻¹ s⁻¹.
On the same counts, the results for B6 are 93000 µM, 1330 s⁻¹ and 14300 M⁻¹ s⁻¹.
On the same counts, the results for B7 are 120 µM, 7000 s⁻¹ and 5.83e+07 M⁻¹ s⁻¹.
The corresponding values for B8 are 160 µM, 6670 s⁻¹ and 4.17e+07 M⁻¹ s⁻¹.
